{"source": "patent US12036234B2", "about": "“Heparin conjugated to collagen-binding peptides for targeting to biological and synthetic tissues” (Northwestern University, priority 2017, dated 2024)", "biological_target": "collagen IV (Mus musculus, UniProt P02463+P08122)", "sequence (P02463 173-1669)": "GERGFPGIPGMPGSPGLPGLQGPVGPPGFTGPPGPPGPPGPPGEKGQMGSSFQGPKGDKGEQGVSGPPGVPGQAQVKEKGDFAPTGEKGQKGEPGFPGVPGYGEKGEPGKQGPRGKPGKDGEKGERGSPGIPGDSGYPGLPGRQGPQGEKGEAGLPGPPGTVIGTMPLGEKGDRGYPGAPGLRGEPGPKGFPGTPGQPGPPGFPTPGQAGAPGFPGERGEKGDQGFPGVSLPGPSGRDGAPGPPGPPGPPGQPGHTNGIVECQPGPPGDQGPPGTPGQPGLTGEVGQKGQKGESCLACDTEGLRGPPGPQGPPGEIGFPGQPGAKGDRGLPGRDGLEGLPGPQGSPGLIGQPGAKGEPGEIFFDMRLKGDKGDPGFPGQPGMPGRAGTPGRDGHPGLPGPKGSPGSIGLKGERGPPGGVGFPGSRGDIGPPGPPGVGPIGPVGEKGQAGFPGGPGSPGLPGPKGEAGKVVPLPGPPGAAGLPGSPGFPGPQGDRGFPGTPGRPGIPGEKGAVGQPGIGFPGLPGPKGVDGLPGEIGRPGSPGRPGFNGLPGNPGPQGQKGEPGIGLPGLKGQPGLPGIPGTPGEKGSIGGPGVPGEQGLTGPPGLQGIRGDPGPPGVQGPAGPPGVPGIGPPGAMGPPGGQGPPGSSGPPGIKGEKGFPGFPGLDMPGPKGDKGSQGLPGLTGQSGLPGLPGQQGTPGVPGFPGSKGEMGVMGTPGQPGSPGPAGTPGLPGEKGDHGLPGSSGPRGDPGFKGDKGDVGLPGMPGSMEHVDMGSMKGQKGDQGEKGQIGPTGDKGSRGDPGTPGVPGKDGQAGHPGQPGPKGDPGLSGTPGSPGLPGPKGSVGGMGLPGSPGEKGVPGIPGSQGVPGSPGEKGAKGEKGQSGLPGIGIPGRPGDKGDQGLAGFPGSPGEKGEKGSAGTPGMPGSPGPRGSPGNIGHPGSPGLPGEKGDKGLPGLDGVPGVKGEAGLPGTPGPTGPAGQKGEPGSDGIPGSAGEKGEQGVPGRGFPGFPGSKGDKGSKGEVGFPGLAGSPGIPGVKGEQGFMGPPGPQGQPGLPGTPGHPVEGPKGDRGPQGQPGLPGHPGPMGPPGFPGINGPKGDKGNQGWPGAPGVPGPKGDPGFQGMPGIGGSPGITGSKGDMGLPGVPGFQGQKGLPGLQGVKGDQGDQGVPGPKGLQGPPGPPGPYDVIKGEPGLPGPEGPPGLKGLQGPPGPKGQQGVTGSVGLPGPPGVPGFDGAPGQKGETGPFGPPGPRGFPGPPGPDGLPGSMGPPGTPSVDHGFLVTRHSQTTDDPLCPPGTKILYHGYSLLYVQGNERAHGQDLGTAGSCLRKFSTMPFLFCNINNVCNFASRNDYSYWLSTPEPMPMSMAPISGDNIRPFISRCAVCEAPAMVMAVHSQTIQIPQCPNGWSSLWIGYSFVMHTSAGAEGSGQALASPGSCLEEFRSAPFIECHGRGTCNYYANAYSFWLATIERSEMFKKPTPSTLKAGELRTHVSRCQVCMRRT", "sequence (P08122 184-1707)": "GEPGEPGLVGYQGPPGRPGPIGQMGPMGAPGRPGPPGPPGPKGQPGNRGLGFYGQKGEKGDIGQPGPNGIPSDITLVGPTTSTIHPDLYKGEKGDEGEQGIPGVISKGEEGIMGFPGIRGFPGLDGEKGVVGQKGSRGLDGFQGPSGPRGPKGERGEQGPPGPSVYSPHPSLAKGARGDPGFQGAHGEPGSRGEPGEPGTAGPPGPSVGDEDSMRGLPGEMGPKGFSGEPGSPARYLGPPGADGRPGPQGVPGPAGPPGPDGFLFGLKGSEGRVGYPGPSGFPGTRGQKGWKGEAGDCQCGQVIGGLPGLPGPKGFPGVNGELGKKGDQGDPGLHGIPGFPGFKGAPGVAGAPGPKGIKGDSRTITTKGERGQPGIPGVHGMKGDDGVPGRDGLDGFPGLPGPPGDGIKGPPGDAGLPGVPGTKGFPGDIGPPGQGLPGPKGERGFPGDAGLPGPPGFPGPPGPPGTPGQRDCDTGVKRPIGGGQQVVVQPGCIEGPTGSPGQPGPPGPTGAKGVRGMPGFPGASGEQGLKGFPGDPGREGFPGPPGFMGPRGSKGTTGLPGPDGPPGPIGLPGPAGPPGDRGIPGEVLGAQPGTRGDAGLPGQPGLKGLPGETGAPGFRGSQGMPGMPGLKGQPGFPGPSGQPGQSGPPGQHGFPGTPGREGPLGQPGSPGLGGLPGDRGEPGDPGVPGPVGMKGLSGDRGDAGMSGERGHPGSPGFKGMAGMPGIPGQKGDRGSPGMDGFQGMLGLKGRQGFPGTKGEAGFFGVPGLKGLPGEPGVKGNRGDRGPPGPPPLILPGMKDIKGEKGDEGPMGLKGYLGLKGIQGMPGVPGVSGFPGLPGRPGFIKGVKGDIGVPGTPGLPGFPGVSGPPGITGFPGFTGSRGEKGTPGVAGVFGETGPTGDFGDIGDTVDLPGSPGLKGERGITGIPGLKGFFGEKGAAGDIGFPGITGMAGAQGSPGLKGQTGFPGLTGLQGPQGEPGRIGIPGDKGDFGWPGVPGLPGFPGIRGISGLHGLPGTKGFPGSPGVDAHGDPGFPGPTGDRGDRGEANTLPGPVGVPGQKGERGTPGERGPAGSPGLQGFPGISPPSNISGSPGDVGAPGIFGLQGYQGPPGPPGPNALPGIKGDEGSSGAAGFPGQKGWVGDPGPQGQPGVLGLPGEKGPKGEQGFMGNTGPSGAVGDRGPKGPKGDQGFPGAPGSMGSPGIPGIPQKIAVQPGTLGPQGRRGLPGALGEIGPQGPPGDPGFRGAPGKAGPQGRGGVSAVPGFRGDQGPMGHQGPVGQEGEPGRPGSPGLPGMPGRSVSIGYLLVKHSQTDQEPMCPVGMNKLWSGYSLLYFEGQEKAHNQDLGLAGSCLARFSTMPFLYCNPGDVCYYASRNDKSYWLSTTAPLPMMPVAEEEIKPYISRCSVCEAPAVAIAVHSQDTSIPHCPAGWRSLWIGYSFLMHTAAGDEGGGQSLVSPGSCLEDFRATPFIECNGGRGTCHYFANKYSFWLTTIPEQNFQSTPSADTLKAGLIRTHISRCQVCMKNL", "assay": "Cy5 conjugate binding to surface coated collagen IV", "conditions": "30 mg/ml, improved batch, 24 hour incubation", "description": "Heparin(Cy5)-CBP conjugates were synthesized using N-(3-dimethylaminopropyl)-N′-ethylcarbodiimide/N-hydroxyl succinimide (EDC/NHS) chemistry (1,2). Briefly, 1 mM of heparin sodium salt or fluorescently pre-conjugated Heparin(Cyanine5) (Hep-Cy5) mixed with 120 mM EDC and 60 mM NHS in 2-(N-morpholino) ethanesulfonic acid (MES) buffer at pH 6.5. This was rocked for 4 hours at 20° C. 1 mM of […] binding peptide (CQDSETRTFY (SEQ ID NO:1), CBP) or a scrambled sequence (CDEFQRSTTY (SEQ ID NO:2), CBPi) was added, and allowed to rock overnight at 4° C. This mixture was dialyzed to exclude molecules […] 3.5 kDa and lyophilized to dry. Four molecular assays were used to assess the functional synthesis of these conjugates. An Ellman's assay is capable of colormetrically labeling the thiol containing cysteine amino acid, and was used to assess the cysteine molar quantity of the whole conjugate (3). A dimethylmethylene blue assay was used to stain the glycosaminoglycan present in heparin conjugates to determine the heparin molar quantity (4). A colormetric kit was used to assess clotting via factor Xa (5). Effective CBP related binding of the conjugate was measured via the Cy5 fluorophore, using a 24 hour incubation with surface coated collagen IV (6). […]", "note": "Ends that are not written are not given here.", "data": [{"substance": "CBP-Hep(Cy5): Cy5-labelled heparin conjugated with CBP by EDC/NHS chemistry (CQDSETRTFY; also: conjugated to Cy5-labelled heparin by EDC/NHS, place not given here)", "values": [{"measurement": "binding to collagen IV relative to scrambled CBPi control", "value": "four times more"}]}]}
